Source: publication PMC9482650, “Quantitative fragmentomics allow affinity mapping of interactomes” (Nature Communications, 2022)

T1: ARHGEF11, O15085
T1 sequence (O15085 42-136, limits assumed, looked up): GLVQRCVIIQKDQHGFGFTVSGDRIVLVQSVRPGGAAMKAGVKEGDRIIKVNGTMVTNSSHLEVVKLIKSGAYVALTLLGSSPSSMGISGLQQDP

T2: MPP2, Q14168
T2 sequence (Q14168 180-250, limits assumed, looked up): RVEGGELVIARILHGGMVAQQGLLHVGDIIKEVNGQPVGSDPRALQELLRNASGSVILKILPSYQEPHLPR

T3: RADIL, Q96JH8
T3 sequence (Q96JH8 971-1071, limits assumed, looked up): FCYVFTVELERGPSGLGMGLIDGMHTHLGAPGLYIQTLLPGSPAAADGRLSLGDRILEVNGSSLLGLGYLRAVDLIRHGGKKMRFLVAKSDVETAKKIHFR

T4: LNX2_2, Q8N448
T4 sequence (Q8N448 334-432, limits assumed, looked up): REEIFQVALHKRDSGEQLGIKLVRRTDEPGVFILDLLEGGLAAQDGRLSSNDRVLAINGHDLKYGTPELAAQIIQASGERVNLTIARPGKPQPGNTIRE

T5: GRIP1_4, Q9Y3R0
T5 sequence (Q9Y3R0 467-571, limits assumed, looked up): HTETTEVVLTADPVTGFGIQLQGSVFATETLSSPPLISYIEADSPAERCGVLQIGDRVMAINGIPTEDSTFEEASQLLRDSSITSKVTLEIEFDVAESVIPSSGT

T6: LNX2_3, Q8N448
T6 sequence (Q8N448 463-564, limits assumed, looked up): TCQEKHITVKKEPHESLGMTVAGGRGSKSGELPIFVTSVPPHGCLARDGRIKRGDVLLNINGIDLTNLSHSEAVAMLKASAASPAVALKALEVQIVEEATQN

T7: DLG3_3, Q92796
T7 sequence (Q92796 374-475, limits assumed, looked up): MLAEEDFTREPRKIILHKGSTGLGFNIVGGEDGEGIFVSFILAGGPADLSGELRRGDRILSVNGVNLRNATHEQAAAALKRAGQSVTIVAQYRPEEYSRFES

T8: NHERF3_1, Q5T2W1
T8 sequence (Q5T2W1 4-100, limits assumed, looked up): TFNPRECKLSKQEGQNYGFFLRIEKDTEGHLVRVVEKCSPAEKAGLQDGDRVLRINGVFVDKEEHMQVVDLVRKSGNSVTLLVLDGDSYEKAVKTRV

T9: LIN7B, Q9HAP6
T9 sequence (Q9HAP6 88-185, limits assumed, looked up): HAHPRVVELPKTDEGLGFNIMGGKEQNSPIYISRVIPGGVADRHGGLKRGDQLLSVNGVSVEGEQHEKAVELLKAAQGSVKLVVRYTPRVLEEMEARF

T10: DVL3, Q92997
T10 sequence (Q92997 244-331, limits assumed, looked up): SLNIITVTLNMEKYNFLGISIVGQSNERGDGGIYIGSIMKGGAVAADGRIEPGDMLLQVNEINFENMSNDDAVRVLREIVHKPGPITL

T11: GRIP1_5, Q9Y3R0
T11 sequence (Q9Y3R0 568-668, limits assumed, looked up): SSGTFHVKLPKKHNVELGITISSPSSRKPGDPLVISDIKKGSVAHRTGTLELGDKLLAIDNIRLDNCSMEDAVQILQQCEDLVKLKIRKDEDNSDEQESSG

T12: TIAM2, Q8IVF5
T12 sequence (Q8IVF5 885-986, limits assumed, looked up): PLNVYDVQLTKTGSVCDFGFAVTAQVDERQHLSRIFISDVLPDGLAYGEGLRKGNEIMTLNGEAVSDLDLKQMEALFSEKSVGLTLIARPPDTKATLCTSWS

B1: ATRNL1, Q5VV63 (peptide)
chain: HLSTRQGTCV

Target: DLG1_2, Q12959
Test: holdup assay
Parameters: key: below the threshold = too weak to quantify, mostly under pKd 3.1 to 4
Settings: plain residues with an end cap or a label only (N-terminal biotin on a linker: ado-ado)

Sequence of DLG1_2, Q12959 (Q12959 314-412): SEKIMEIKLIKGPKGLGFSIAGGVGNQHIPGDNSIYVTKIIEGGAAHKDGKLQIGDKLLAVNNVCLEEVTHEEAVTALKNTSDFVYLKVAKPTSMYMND

Binder	pKd
B1	4.55

Target: MAGI2_2, Q86UL8
Test: holdup assay
Parameters: key: below the threshold = too weak to quantify, mostly under pKd 3.1 to 4
Settings: plain residues with an end cap or a label only (N-terminal biotin on a linker: ado-ado)

Sequence of MAGI2_2, Q86UL8 (Q86UL8 410-522): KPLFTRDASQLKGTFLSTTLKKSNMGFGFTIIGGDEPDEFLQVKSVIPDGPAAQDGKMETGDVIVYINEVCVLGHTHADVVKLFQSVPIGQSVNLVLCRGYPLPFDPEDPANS

Binder	pKd
B1	4.73

Target: SNX27, Q96L92
Test: holdup assay
Parameters: key: below the threshold = too weak to quantify, mostly under pKd 3.1 to 4
Settings: plain residues with an end cap or a label only (N-terminal biotin on a linker: ado-ado)

Binder	pKd
B1	4.05

Target: PARD3_3, Q8TEW0
Test: holdup assay
Parameters: key: below the threshold = too weak to quantify, mostly under pKd 3.1 to 4
Settings: plain residues with an end cap or a label only (N-terminal biotin on a linker: ado-ado)

Sequence of PARD3_3, Q8TEW0 (Q8TEW0 582-685): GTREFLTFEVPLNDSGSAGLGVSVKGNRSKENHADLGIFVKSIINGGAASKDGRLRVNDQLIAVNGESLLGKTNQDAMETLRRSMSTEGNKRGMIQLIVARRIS

Binder	pKd
B1	below the threshold

Target: T1, ARHGEF11, O15085
Test: holdup assay
Parameters: key: below the threshold = too weak to quantify, mostly under pKd 3.1 to 4
Settings: plain residues with an end cap or a label only (N-terminal biotin on a linker: ado-ado)

Binder	pKd
B1	4.02

Target: Inadl_2, Q8NI35
Test: holdup assay
Parameters: key: below the threshold = too weak to quantify, mostly under pKd 3.1 to 4
Settings: plain residues with an end cap or a label only (N-terminal biotin on a linker: ado-ado)

Sequence of Inadl_2, Q8NI35 (Q8NI35 238-335): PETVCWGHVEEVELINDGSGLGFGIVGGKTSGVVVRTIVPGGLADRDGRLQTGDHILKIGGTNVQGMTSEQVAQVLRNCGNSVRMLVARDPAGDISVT

Binder	pKd
B1	below the threshold

Target: T2, MPP2, Q14168
Test: holdup assay
Parameters: key: below the threshold = too weak to quantify, mostly under pKd 3.1 to 4
Settings: plain residues with an end cap or a label only (N-terminal biotin on a linker: ado-ado)

Binder	pKd
B1	below the threshold

Target: GIPC2, Q8TF65
Test: holdup assay
Parameters: key: below the threshold = too weak to quantify, mostly under pKd 3.1 to 4
Settings: plain residues with an end cap or a label only (N-terminal biotin on a linker: ado-ado)

Sequence of GIPC2, Q8TF65 (Q8TF65 112-203): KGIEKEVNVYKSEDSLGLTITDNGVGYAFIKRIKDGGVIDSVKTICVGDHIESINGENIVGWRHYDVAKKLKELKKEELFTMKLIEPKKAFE

Binder	pKd
B1	below the threshold

Target: T3, RADIL, Q96JH8
Test: holdup assay
Parameters: key: below the threshold = too weak to quantify, mostly under pKd 3.1 to 4
Settings: plain residues with an end cap or a label only (N-terminal biotin on a linker: ado-ado)

Binder	pKd
B1	4.28

Target: LAP2, Q96RT1
Test: holdup assay
Parameters: key: below the threshold = too weak to quantify, mostly under pKd 3.1 to 4
Settings: plain residues with an end cap or a label only (N-terminal biotin on a linker: ado-ado)

Sequence of LAP2, Q96RT1 (Q96RT1 other isoform, or with tags, fused parts or gaps): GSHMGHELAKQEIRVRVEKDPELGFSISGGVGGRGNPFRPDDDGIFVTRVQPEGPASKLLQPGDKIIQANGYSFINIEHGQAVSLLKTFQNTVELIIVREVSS

Binder	pKd
B1	3.94

Target: T4, LNX2_2, Q8N448
Test: holdup assay
Parameters: key: below the threshold = too weak to quantify, mostly under pKd 3.1 to 4
Settings: plain residues with an end cap or a label only (N-terminal biotin on a linker: ado-ado)

Binder	pKd
B1	5.01

Target: T5, GRIP1_4, Q9Y3R0
Test: holdup assay
Parameters: key: below the threshold = too weak to quantify, mostly under pKd 3.1 to 4
Settings: plain residues with an end cap or a label only (N-terminal biotin on a linker: ado-ado)

Binder	pKd
B1	below the threshold

Target: T6, LNX2_3, Q8N448
Test: holdup assay
Parameters: key: below the threshold = too weak to quantify, mostly under pKd 3.1 to 4
Settings: plain residues with an end cap or a label only (N-terminal biotin on a linker: ado-ado)

Binder	pKd
B1	below the threshold

Target: T7, DLG3_3, Q92796
Test: holdup assay
Parameters: key: below the threshold = too weak to quantify, mostly under pKd 3.1 to 4
Settings: plain residues with an end cap or a label only (N-terminal biotin on a linker: ado-ado)

Binder	pKd
B1	3.85

Target: T8, NHERF3_1, Q5T2W1
Test: holdup assay
Parameters: key: below the threshold = too weak to quantify, mostly under pKd 3.1 to 4
Settings: plain residues with an end cap or a label only (N-terminal biotin on a linker: ado-ado)

Binder	pKd
B1	3.87

Target: GRIP2_5, Q9C0E4
Test: holdup assay
Parameters: key: below the threshold = too weak to quantify, mostly under pKd 3.1 to 4
Settings: plain residues with an end cap or a label only (N-terminal biotin on a linker: ado-ado)

Sequence of GRIP2_5, Q9C0E4 (Q9C0E4 544-642): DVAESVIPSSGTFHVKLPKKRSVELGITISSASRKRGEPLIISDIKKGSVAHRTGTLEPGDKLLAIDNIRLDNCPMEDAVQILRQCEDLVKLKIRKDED

Binder	pKd
B1	below the threshold

Target: MAST2, Q6P0Q8
Test: holdup assay
Parameters: key: below the threshold = too weak to quantify, mostly under pKd 3.1 to 4
Settings: plain residues with an end cap or a label only (N-terminal biotin on a linker: ado-ado)

Sequence of MAST2, Q6P0Q8 (Q6P0Q8 1099-1202): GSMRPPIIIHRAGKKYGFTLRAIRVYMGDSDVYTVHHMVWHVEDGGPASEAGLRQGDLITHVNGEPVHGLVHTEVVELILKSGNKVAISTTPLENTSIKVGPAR

Binder	pKd
B1	4.94

Target: FRMPD4, Q14CM0
Test: holdup assay
Parameters: key: below the threshold = too weak to quantify, mostly under pKd 3.1 to 4
Settings: plain residues with an end cap or a label only (N-terminal biotin on a linker: ado-ado)

Sequence of FRMPD4, Q14CM0 (Q14CM0 67-160): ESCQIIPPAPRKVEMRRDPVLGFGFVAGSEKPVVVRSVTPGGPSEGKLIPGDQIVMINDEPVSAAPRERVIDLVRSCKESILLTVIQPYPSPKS

Binder	pKd
B1	3.51

Target: NOS1, P29475
Test: holdup assay
Parameters: key: below the threshold = too weak to quantify, mostly under pKd 3.1 to 4
Settings: plain residues with an end cap or a label only (N-terminal biotin on a linker: ado-ado)

Sequence of NOS1, P29475 (P29475 9-101): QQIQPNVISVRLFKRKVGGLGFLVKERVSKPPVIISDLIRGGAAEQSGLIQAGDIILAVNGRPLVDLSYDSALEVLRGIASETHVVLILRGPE

Binder	pKd
B1	4.07

Target: T9, LIN7B, Q9HAP6
Test: holdup assay
Parameters: key: below the threshold = too weak to quantify, mostly under pKd 3.1 to 4
Settings: plain residues with an end cap or a label only (N-terminal biotin on a linker: ado-ado)

Binder	pKd
B1	below the threshold

Target: IL16_3, Q14005
Test: holdup assay
Parameters: key: below the threshold = too weak to quantify, mostly under pKd 3.1 to 4
Settings: plain residues with an end cap or a label only (N-terminal biotin on a linker: ado-ado)

Sequence of IL16_3, Q14005 (Q14005 1107-1207): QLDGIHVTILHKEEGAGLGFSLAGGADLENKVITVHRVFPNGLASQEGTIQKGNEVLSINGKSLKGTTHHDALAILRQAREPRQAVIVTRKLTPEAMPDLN

Binder	pKd
B1	below the threshold

Target: IL16_4, Q14005
Test: holdup assay
Parameters: key: below the threshold = too weak to quantify, mostly under pKd 3.1 to 4
Settings: plain residues with an end cap or a label only (N-terminal biotin on a linker: ado-ado)

Sequence of IL16_4, Q14005 (Q14005 1229-1329): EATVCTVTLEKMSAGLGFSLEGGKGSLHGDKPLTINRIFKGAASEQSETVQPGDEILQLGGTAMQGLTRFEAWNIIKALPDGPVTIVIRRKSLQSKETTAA

Binder	pKd
B1	below the threshold

Target: T10, DVL3, Q92997
Test: holdup assay
Parameters: key: below the threshold = too weak to quantify, mostly under pKd 3.1 to 4
Settings: plain residues with an end cap or a label only (N-terminal biotin on a linker: ado-ado)

Binder	pKd
B1	below the threshold

Target: T11, GRIP1_5, Q9Y3R0
Test: holdup assay
Parameters: key: below the threshold = too weak to quantify, mostly under pKd 3.1 to 4
Settings: plain residues with an end cap or a label only (N-terminal biotin on a linker: ado-ado)

Binder	pKd
B1	below the threshold

Target: TJP2_1, Q9UDY2
Test: holdup assay
Parameters: key: below the threshold = too weak to quantify, mostly under pKd 3.1 to 4
Settings: plain residues with an end cap or a label only (N-terminal biotin on a linker: ado-ado)

Sequence of TJP2_1, Q9UDY2 (Q9UDY2 24-128): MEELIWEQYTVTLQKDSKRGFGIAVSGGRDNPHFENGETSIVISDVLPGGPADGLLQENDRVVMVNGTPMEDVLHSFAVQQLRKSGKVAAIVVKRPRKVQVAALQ

Binder	pKd
B1	4.35

Target: T12, TIAM2, Q8IVF5
Test: holdup assay
Parameters: key: below the threshold = too weak to quantify, mostly under pKd 3.1 to 4
Settings: plain residues with an end cap or a label only (N-terminal biotin on a linker: ado-ado)

Binder	pKd
B1	below the threshold
